US20080312152A1, “Glycosylated Probnp” (priority 2005, published 2008)
Entries after “also recorded” stand apart in the source; their conditions may differ.

Tests used:
[1] = BNP as active hormone; cited from earlier work
[2] = molecular target: T1, GC-A receptor (Homo sapiens, UniProt P16066); assay: Competitive binding to GC-A receptor (FIG. 7); conditions: glycosylated recombinant human proBNP vs hBNP
T1 sequence (P16066 33-1061): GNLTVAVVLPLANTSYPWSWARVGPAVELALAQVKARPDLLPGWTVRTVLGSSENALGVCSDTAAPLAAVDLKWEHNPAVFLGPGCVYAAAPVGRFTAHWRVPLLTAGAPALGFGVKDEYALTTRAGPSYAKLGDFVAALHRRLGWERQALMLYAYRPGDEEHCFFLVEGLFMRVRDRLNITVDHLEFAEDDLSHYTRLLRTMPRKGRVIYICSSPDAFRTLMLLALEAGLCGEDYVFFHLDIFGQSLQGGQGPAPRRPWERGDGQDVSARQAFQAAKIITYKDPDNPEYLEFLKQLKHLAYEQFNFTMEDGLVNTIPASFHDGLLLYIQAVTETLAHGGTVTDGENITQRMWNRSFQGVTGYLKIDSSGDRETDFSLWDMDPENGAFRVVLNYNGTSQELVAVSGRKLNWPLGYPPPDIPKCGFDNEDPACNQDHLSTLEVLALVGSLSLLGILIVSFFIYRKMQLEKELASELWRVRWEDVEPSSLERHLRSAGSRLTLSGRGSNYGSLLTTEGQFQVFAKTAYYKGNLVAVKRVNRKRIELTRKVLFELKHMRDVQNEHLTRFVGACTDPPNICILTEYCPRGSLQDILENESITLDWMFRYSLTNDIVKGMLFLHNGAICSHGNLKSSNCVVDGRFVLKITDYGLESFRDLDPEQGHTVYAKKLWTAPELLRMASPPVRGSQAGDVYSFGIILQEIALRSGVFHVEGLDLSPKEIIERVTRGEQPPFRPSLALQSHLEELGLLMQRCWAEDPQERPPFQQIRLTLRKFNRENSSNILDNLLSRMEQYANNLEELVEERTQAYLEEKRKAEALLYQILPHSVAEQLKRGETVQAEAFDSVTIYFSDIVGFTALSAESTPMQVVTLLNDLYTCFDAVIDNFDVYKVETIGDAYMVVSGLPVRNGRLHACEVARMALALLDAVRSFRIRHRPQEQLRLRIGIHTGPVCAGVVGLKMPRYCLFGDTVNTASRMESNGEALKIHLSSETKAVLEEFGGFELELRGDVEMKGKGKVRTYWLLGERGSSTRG
Description: FIG. 7 is a graph showing competitive binding of glycosylated recombinant human proBNP to GC-A receptor relative to hBNP.

[3] = molecular target: T1, GC-A receptor; assay: Cyclic GMP release from cells expressing the human GC-A receptor; type: cell-based; conditions: vs hBNP
Method: Pursuant to the present invention, the effects of hBNP, unglycosylated proBNP, and O-link glycosylated proBNP on cyclic GMP release from cells expressing the human GC-A receptor were determined.

[4] = Pharmacokinetics after i.v. bolus in cynomolgus monkeys (FIGS. 9, 10); type: in vivo, cynomolgus monkey; conditions: for circulating (plasma) half-life compared to hBNP: i.v., male Cyno monkeys
Description: Six adult male cynomolgus monkeys (5-6 kg) from the same colony were randomly selected for this study. In the morning of the experiment day, each monkey was quickly anesthetized by inhalation of 5% isoflurance/95% oxygen. Once the animal was unconscious, the isoflurance was reduced to 1.5% and a sterile catheter was inserted into the urinary bladder. Another catheter was connected to a cephalic vein in the right or left arm of the monkey for compound delivery. The anesthesia was discontinued. The conscious monkey was seated in a restraining chair and allowed to stabilize for 1 hour. The conscious monkey received two bolus doses (1 nmol/kg and 3 nmol/kg) of each human BNP analog in 1 ml of saline via cephalic vein injection followed by a flush with 3 ml of saline. One hour of washing-out period was required between the two administrations. Two ml of blood were drawn into a EDTA tube containing 150 kallikrein-inactivating units aprotonin via a cephalic vein in the another arm of the monkey at the following 8 time points: baseline (within 2 min prior to dosing), 2, 5, 10, 15, 30, 60 and 120 min. The collected samples were kept on ice prior to centrifugation at 4° C. The plasma from each time point was aliquoted to 4 Eppendorff tubes with approximately […]. For urine collection, the bladder was emptied and flushed with 5 ml of sterile water. The urine was collected to a 15 ml regular polypropylene tube in every 20 min at the following time points: −60, −40, −20, 0, 20, 40, 60, 80, 100 and 120 min. Weighing of tube was required before and after collection. The urine sample from each time point was aliquoted to 4 Eppendorf tubes with […]. All plasma and urine samples were kept at −80° C. and delivered on dry ice. Material supply: […] of hBNP were required for 8 cynos with the body weight of 6 kg at the doses of 1 nmol/kg and 3 nmol/kg, respectively. The material for each dose was weighed to a 15 ml sterile tube and dissolved in 8 ml of sterile saline prior to injection. Approximately 1 ml of the material at each dose was injected to each animal. The injection volume (ml) of the material to each animal was equal to animal body weight (kg) divided by six.

[5] = system: cGMP; assay: cGMP levels in plasma and urine after i.v. bolus in cynomolgus monkeys; type: in vivo, cynomolgus monkey
Description: Six adult male cynomolgus monkeys (5-6 kg) from the same colony were randomly selected for this study. In the morning of the experiment day, each monkey was quickly anesthetized by inhalation of 5% isoflurance/95% oxygen. Once the animal was unconscious, the isoflurance was reduced to 1.5% and a sterile catheter was inserted into the urinary bladder. Another catheter was connected to a cephalic vein in the right or left arm of the monkey for compound delivery. The anesthesia was discontinued. The conscious monkey was seated in a restraining chair and allowed to stabilize for 1 hour. The conscious monkey received two bolus doses (1 nmol/kg and 3 nmol/kg) of each human BNP analog in 1 ml of saline via cephalic vein injection followed by a flush with 3 ml of saline. One hour of washing-out period was required between the two administrations. Two ml of blood were drawn into a EDTA tube containing 150 kallikrein-inactivating units aprotonin via a cephalic vein in the another arm of the monkey at the following 8 time points: baseline (within 2 min prior to dosing), 2, 5, 10, 15, 30, 60 and 120 min. The collected samples were kept on ice prior to centrifugation at 4° C. The plasma from each time point was aliquoted to 4 Eppendorff tubes with approximately […]. For urine collection, the bladder was emptied and flushed with 5 ml of sterile water. […]

[6] = molecular target: T2, NPR-A receptor (Homo sapiens, UniProt P16066); assay: NPR-A activation in human aorta endothelial cells (FIG. 8); type: cell-based
T2 construct: endogenous in cells; host or cells: human aorta endothelial cells
T2 sequence (P16066 33-1061): T1 sequence (P16066 33-1061)
Description: The graph provides a direct activity comparison of hBNP relative to proBNP.
With respect to proBNP and BNP, total “Natriuretic Activity” in a blood sample is defined by the cumulative activity of proBNP and hBNP. When measuring against this receptor however it should be appreciated that the activity of other relevant natriuretic peptides, such as ANP and proANP can and should also be taken into consideration.

Compound	half-life [1]	competitive binding to GC-A receptor relative to hBNP [2]	inducing cellular cyclic GMP release (receptor activation) [3]	potency in cyclic GMP release assay [3]	PK profile compared to BNP ([4]; conscious restrained cynomolgus monkeys, i.v. bolus)	metabolism in the blood ([4]; cynomolgus monkeys)	circulating (plasma) half-life compared to hBNP [4]	circulating (plasma) half-life compared to hBNP ([4]; listed as glycosylated proBNP)	effects on cGMP levels in plasma compared to BNP ([5]; plasma)	effects on cGMP levels in urine compared to BNP ([5]; urine)	activity against the NPR-A receptor [6]	potency on NPR-A activation compared to hBNP [6]
CC[C@H](C)[C@@H]1NC(=O)[C@H](CCCNC(=N)N)NC(=O)[C@H](CC(=O)O)NC(=O)[C@H](CCSC)NC(=O)[C@H](CCCCN)NC(=O)[C@H](CCCNC(=N)N)NC(=O)CNC(=O)[C@H](Cc2ccccc2)NC(=O)[C@@H](NC(=O)CNC(=O)[C@H](CO)NC(=O)CNC(=O)[C@H](CCC(N)=O)NC(=O)[C@@H](NC(=O)[C@H](CCSC)NC(=O)[C@H](CCCCN)NC(=O)[C@@H]2CCCN2C(=O)[C@@H](N)CO)C(C)C)CSSC[C@@H](C(=O)N[C@@H](CCCCN)C(=O)N[C@H](C(=O)N[C@@H](CC(C)C)C(=O)N[C@@H](CCCN=C(N)N)C(=O)N[C@@H](CCCN=C(N)N)C(=O)N[C@@H](Cc2cnc[nH]2)C(=O)O)C(C)C)NC(=O)CNC(=O)[C@H](CC(C)C)NC(=O)CNC(=O)[C@H](CO)NC(=O)[C@H](CO)NC(=O)[C@H](CO)NC(=O)[C@H](CO)NC1=O [hBNP]	approximately 20 minutes	–	–	–	–	–	–	–	–	–	–	–
proBNP: 108 amino acid human BNP precursor protein, O-link glycosylated, recombinantly expressed in CHO cells	–	less active	equivalent to hBNP	less potent than hBNP	extended PK profile	not metabolized in the blood	longer plasma half-life; also recorded: substantial increase in circulating half-life	greater than that of hBNP	reduced effects	reduced effects	exhibit activity	lower activity than hBNP; also recorded: reduced potency
